No end group written: not given here.
T1: recombinant MCL1 (human, UniProt Q07820 1-350)
T1 chain: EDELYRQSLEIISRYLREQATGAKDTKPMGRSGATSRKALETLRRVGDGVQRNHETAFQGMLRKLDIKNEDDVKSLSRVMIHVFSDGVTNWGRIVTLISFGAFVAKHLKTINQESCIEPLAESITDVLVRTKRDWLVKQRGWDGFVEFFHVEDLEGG


Target: T1, recombinant MCL1
Experiment: FP

**Q.** For RENFEILMKLKESLELMELVPQPLVDSYRQQQQLLQR [p73TD-derived peptide α1α2], which IC50 is on record?
**A.** Its IC50 is 882 nM.

**Q.** How did the IC50 turn out when RENFEILMKLKESLELMELV [p73TD-derived peptide α1] was run?
**A.** Its IC50 is 2630 nM.

**Q.** Which IC50 does the source give for DEDTYYLQVRGRENFEILMKLKESLELMELV-NH2 [p73TD-derived peptide β1α1] here?
**A.** Its IC50 is 1090 nM.

Source: publication PMC7641127 (2020)
